Holding throughout (assay type): binding
Common to all, as to parameters: key: cells having the interaction would survive (+); cells not having the interaction would die (−) on selective media (−ADE, −HIS)

The test system of one test is K.pastoris Rad51. Description: Y2H assay RAD51/SEQ ID NO.: 5 pair. Here is the method:
(§1) RAD51-binding peptides were tested for ability to bind RAD51 of several different species using a “conventional” Y2H assay, where interaction between the two-hybrid pair drove expression of ADE2 and HIS genes. In this Y2H assay the two-hybrid pair was RAD51 and the compound 5 peptide sequence (SEQ ID NO.: 5), so that cells having the interaction would survive (+) and cells not having the interaction would die (−) on selective media (−ADE, −HIS).

The target in another test is T1, S.pombe Rad51 (Schizosaccharomyces pombe, UniProt P36601).
T1 construct: expressed in transfected cells
T1 sequence (P36601 whole entry, looked up): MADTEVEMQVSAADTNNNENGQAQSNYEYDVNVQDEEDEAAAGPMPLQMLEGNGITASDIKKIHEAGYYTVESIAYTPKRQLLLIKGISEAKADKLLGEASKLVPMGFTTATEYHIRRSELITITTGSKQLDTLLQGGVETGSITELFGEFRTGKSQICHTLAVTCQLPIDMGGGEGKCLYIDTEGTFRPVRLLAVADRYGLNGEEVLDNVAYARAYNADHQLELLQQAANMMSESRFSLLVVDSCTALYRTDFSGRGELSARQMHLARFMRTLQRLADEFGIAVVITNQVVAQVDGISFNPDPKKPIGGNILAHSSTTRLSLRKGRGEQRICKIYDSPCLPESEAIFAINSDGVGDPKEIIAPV
Description: Y2H assay RAD51/SEQ ID NO.: 5 pair. Here is the method: as §1

In another test the target is T2, G.gallus Rad51 (Gallus gallus, UniProt P37383).
T2 construct: expressed in transfected cells
T2 sequence (P37383 1-339): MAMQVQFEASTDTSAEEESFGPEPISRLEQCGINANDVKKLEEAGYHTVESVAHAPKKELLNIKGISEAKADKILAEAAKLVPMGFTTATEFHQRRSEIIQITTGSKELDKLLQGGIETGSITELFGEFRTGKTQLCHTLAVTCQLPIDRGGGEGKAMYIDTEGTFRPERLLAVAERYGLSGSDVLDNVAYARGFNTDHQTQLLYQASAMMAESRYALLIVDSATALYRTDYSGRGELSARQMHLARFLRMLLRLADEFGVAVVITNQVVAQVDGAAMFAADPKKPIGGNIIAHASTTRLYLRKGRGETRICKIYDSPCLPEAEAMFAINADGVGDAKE
Description: Y2H assay RAD51/SEQ ID NO.: 5 pair. Here is the method: as §1

Another test addresses T3, S.cerevisiae Rad51 (Saccharomyces cerevisiae, UniProt P25454).
T3 construct: expressed in transfected cells
Kind of test: Y2H assay RAD51/SEQ ID NO.: 5 pair. Here is the method:
as §1

In another test the test system is K.lactis Rad51. Description: Y2H assay RAD51/SEQ ID NO.: 5 pair. Here is the method:
as §1

Test [1] has as its target T4, S.cerevisiae Rad51 (1-250) + H.sapiens Rad51 (190-339) (UniProt P25454+Q06609).
T4 construct: S.cerevisiae Rad51 (1-250) +; H.sapiens Rad51 (190-339); expressed in transfected cells
Kind of test: Y2H assay, RAD51 hybrid constructs. Here is the method: as §1
(§2) Based on sequence comparisons of S. cerevisiae and H. sapiens RAD51, multiple cerevisiae-sapiens hybrid constructs of RAD51 were constructed and tested for their ability to bind RAD51-binding peptide in the same RAD51/SEQ ID NO.: 5 hybrid system described above.

Test [2] has as its target T5, S.cerevisiae Rad51 (1-226) + H.sapiens Rad51 (168-339) (UniProt P25454+Q06609).
T5 construct: S.cerevisiae Rad51 (1-226) +; H.sapiens Rad51 (168-339); expressed in transfected cells
Kind of test: Y2H assay, RAD51 hybrid constructs. Here is the method:
as §1, §2

Test [3] addresses T6, S.cerevisiae Rad51 (1-278) + H.sapiens Rad51 (218-339) (UniProt P25454+Q06609).
T6 construct: S.cerevisiae Rad51 (1-278) +; H.sapiens Rad51 (218-339); expressed in transfected cells
T6 sequence (P25454 1-278): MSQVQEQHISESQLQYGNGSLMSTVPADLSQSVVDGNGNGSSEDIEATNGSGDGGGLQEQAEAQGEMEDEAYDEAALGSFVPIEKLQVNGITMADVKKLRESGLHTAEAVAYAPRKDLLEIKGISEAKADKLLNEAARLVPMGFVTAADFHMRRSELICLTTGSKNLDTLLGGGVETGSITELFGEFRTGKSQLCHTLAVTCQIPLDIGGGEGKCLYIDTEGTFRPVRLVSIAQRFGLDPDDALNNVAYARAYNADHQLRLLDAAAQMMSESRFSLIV
T6 sequence (Q06609 218-339): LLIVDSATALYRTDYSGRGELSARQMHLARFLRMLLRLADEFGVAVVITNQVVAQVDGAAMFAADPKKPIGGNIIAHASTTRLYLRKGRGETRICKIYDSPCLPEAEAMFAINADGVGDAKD
Description: Y2H assay, RAD51 hybrid constructs. Here is the method:
as §1, §2

The test system of a further test is D.rerio Rad51. Kind of test: Y2H assay RAD51/SEQ ID NO.: 5 pair. Here is the method:
(§3) RAD51-binding peptides were tested for ability to bind RAD51 of several different species using a “conventional” Y2H assay, where interaction between the two-hybrid pair drove expression of ADE2 and HIS genes.

The subject of a further test is C.albicans Rad51. Kind of test: Y2H assay RAD51/SEQ ID NO.: 5 pair. Here is the method:
as §3

T5 sequence (Q06609 168-339, one chain of several): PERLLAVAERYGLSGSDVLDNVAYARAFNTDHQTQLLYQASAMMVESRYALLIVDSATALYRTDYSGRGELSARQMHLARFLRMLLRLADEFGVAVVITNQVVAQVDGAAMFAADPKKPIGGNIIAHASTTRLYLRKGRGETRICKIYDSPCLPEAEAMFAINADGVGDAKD
T3 sequence (P25454 whole entry): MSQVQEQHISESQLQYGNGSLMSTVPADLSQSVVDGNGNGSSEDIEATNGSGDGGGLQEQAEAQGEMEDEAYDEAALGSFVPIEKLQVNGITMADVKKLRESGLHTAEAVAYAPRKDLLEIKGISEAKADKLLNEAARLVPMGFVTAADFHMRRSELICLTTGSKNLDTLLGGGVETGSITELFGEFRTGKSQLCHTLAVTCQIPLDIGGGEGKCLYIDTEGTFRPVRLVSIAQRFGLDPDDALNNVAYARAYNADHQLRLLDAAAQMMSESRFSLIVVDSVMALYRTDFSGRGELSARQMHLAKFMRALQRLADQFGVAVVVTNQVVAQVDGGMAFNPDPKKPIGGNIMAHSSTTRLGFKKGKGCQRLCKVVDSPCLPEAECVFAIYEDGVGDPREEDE
T4 sequence (Q06609 190-339, one chain of several): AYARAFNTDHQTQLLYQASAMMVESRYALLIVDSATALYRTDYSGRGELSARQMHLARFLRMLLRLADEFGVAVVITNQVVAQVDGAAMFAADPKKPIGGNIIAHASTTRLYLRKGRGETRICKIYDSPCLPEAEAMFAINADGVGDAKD

Take KRRRRRRRKRLGVRLRVSRML [SEQ ID NO.: 5]: the “Compound 5 Sequence Binding” value in the test with K.pastoris Rad51 is given as “+”; with S.pombe Rad51 it was “+”; with G.gallus Rad51 it was “+”; with S.cerevisiae Rad51, “−”; in the test on K.lactis Rad51, “−”; with D.rerio Rad51 it was “+”. In addition, the “Compound 5 Sequence Binding” value with C.albicans Rad51 is given as “+”. The “SEQ ID NO.: 5 Binding” value is “+” in [1], “+” in test [2] and “−” in test [3].

The record behind these values is patent US12214008B2, “Protein interfaces” (SyntheX, Inc., priority 2016, dated 2025).
